According to US20100210517A1 (RAPTOR PHARMACEUTICAL, published 2010):

T1: LRP2 CR2728 (human, UniProt P98164 3552-3631)
T1 construct: domain: CR2728; Its cloning is not described in the methods; not shown: N-terminal hexahistidine and S-peptide tags of pET30(+)a
T1 sequence (looked up): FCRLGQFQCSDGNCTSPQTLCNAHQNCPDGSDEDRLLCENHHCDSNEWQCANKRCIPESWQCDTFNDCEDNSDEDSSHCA

T2: MAT CR12 (human, UniProt Q9Y5Y6 452-524)
T2 construct: also called ST14 CR12; matriptase CR12
T2 sequence: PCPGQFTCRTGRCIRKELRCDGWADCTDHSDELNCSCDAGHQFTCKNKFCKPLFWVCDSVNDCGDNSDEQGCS


Key:
LRP2 CR34-36 = target: T3, LRP2 CR34-36 (human, UniProt P98164 3841-3963); assay: solid-phase assay on coated CR protein, each ligand at 80 nM, blank-corrected absorbance
T3 construct: domain: CR34-36; not shown: N-terminal hexahistidine and S-peptide tags of pET30(+)a
T3 sequence (P98164 3841-3963): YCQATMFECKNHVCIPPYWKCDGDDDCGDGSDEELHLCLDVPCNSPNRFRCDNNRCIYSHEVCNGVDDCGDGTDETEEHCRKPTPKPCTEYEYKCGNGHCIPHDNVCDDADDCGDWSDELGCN
Procedure: (§1) Samples were tested twice, in duplicate, and values combined. Means and standard deviations were then calculated. Blank values obtained from wells incubated in the absence of ligand were used to correct absorbance data.
(§2) Solid phase binding assays-Purified, refolded CR protein (1 μg) was bound to Nunc Maxisorp™ 96-well plates in TBS pH 8 supplemented with 5 mM CaCl₂ (TBSC) overnight at 4° C. Wells were washed with TBSC and then blocked with TBSC containing 2% bovine serum albumin (BSA). […] Control wells contained no added ligand. As an additional control, to determine whether the absence of calcium affected binding, 10 mM EGTA was included in the incubation medium for some samples. […] Excess primary antibody was removed and wells washed before incubation with the secondary antibody, HRP-conjugated goat anti rabbit IgG (Bio-Rad). After washing, TMB substrate solutions (Bio-Rad) were added to detect HRP. Color development was stopped with 1N HCl. Absorption at 450 nm was measured with a microplate spectrophotometer (Molecular Devices). Data were plotted and Kd values derived by non-linear regression with the assumption of single-site binding (GraphPad Prism).

LRP2 CR3031 = target: T4, LRP2 CR3031 (human, UniProt P98164 3677-3755); assay: as above
T4 construct: domain: CR3031; Its cloning is not described in the methods; not shown: N-terminal hexahistidine and S-peptide tags of pET30(+)a
T4 sequence (P98164 3677-3755): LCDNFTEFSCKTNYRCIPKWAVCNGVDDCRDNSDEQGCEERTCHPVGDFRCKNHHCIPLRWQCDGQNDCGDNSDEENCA
Procedure: as §1, §2

LRP2 CR2728 = target: T1, LRP2 CR2728; assay: as above
Procedure: as §1, §2

LRP2 CR3536 = target: T5, LRP2 CR3536 (human, UniProt P98164 3882-3963); assay: as above
T5 construct: domain: CR3536; not shown: N-terminal hexahistidine and S-peptide tags of pET30(+)a
T5 sequence (P98164 3882-3963): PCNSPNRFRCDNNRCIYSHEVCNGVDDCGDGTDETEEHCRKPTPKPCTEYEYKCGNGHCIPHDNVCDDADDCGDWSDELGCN
Procedure: as §1, §2

LRP2 CR89 = target: T6, LRP2 CR89 (human, UniProt P98164 1025-1102); assay: as above
T6 construct: domain: CR89; also called YVWR; L2 CR89; not shown: N-terminal hexahistidine and S-peptide tags of pET30(+)a
T6 sequence (P98164 1025-1102): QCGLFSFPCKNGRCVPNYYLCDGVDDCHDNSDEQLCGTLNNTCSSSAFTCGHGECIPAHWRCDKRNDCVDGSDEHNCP
Procedure: as §1, §2

[1] = target: T7, recombinant human LRP1 ligand binding cluster II (amino acids 786-1165, C-terminal Fc) (human); assay: competition ELISA, inhibition of RAP d3 (2 nM) binding to coated LRP1 cluster II-Fc
T7 construct: range 786-1165; Bought from R&D Systems, NS0-expressed; also called rhLRP1 cluster II; hrLRP1 cluster II
T7 sequence (Q07954 786-1165): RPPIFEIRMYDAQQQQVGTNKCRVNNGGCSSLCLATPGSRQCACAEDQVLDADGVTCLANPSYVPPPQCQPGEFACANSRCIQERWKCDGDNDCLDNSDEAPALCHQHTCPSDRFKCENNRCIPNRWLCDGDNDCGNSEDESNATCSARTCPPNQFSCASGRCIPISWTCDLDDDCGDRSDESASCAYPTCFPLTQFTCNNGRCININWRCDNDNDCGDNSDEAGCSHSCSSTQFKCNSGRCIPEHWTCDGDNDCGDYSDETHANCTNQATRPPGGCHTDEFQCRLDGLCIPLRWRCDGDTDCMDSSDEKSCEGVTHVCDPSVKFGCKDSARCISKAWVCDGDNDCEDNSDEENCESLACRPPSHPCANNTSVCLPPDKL
Procedure: (§3) Solid phase binding assays were performed using recombinant human LRP1 cluster II (amino acids 786-1165, with C-terminal Fc tag, 1 μg, R&D Systems, Minneapolis, Minn.) to coat Nunc MAXISORP™ 96-well plates in TBS pH 8 supplemented with 5 mM CaCl₂ (TBSC) overnight at 4° C. Data was generated by ELISA assay. Wells were washed with TBSC and blocked with TBSC containing 2% BSA. […] Control wells contained no added inhibitor. Wells were washed with TBS supplemented with 5 mM CaCl₂ and 0.05% Tween-20. Bound ligand was detected with either anti-S-peptide-HRP conjugate (Abcam, Cambridge, Mass.), anti-α-2-macroglobulin-HRP or anti-PAI-1-HRP. Excess HRP conjugate was removed and wells washed. Color was developed using TMB reagents (BioRad, Hercules, Calif.). Absorption at 450 nm was measured with a microplate spectrophotometer (Molecular Devices, Palo Alto, Calif.).

[2] = target: T7, recombinant human LRP1 ligand binding …; assay: competition ELISA on coated LRP1 cluster II-Fc; competitor called the heterologous ligand (FIG. 14C; the figure legend names uPA-PAI-1)
Procedure: as §3

[3] = target: T7, recombinant human LRP1 ligand binding …; assay: inhibitor pre-incubated with coated LRP1 cluster II-Fc, washed, then RAP d3 added; inhibition of RAP d3 binding
Procedure: as §3

[4] = target: T8, recombinant mouse VLDLR ectodomain (amino acids 1-798, C-terminal hexahistidine) (mouse, UniProt P98156 28-798); assay: solid-phase binding assay, receptor coated on plate, streptavidin-HRP detection, EDTA-subtracted
T8 construct: range 1-798; Bought from R&D Systems, NS0-expressed; The printed range starts at 1 and so may count a signal peptide; also called rmVLDLR ectodomain; mVLDLR
T8 sequence (P98156 other isoform, or with tags, fused parts or gaps limits assumed, form in doubt): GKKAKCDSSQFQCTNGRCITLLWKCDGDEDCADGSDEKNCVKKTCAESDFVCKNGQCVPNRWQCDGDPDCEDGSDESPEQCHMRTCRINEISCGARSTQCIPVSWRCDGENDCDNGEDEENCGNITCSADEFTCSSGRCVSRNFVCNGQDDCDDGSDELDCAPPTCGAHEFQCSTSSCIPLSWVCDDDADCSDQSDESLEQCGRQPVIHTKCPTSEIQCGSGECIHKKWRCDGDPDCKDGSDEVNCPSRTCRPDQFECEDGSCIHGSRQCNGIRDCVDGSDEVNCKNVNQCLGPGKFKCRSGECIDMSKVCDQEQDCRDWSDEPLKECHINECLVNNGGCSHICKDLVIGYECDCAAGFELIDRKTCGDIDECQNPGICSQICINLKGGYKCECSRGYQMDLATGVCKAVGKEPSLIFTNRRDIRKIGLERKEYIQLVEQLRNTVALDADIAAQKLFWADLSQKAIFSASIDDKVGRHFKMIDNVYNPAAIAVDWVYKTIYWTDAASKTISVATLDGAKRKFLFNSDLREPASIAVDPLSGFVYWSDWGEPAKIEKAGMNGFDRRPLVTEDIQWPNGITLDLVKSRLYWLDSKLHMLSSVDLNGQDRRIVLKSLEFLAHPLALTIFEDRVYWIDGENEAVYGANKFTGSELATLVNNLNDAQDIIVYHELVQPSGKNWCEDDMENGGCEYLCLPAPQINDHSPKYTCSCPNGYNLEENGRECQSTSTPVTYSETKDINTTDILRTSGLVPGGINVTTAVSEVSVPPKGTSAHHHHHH
Procedure: (§4) Solid phase binding assays were carried out as follows. Recombinant murine VLDLR ectodomain (aa 1-798, C-terminal hexahistidine, 1 μg) or rhLRP1 cluster II (aa 786-1165, C-terminal Fc, 1 μg) were bound to Nunc Maxisorp™ 96-well plates in TBS pH 8 supplemented with 5 mM CaCl₂ (TBSC) overnight at 4° C. Wells were washed with TBSC and then blocked with TBSC containing 2% BSA. Peptides were then incubated with the immobilized receptor at a range of concentrations for 2 hours in the above blocking buffer supplemented with 0.05% Tween-20 at room temperature. Identical binding reactions were done in the presence of 50 mM EDTA to provide a measure of non-specific binding. Control wells contained no added peptide. […] Excess streptavidin-HRP or primary antibody was removed and wells washed before incubation with the secondary antibody, when necessary, HRP-conjugated goat anti rabbit IgG (Bio-Rad). Color was developed using TMB reagents (BioRad). Absorption at 450 nm was measured with a microplate spectrophotometer (Molecular Devices). Absorption obtained in the presence of EDTA was subtracted from absorption obtained in the presence of calcium prior to analysis. Data were plotted and Kd values derived by non-linear regression with the assumption of single-site binding (GraphPad Prism).

[5] = target: T7, recombinant human LRP1 ligand binding …; assay: as above
Procedure: as §4

[6] = target: T9, 8D6 CR12 (CR pair from FDC-8D6 antigen, CD320) (human, UniProt Q9NPF0 53-168); assay: solid-phase binding assay, CR protein coated on plate
T9 construct: also called FDC-8D6 antigen pair; target CR pair from FDC-8D6 antigen; not shown: N-terminal hexahistidine and S-peptide tags of pET30(+)a
T9 sequence (Q9NPF0 other isoform, or with tags, fused parts or gaps): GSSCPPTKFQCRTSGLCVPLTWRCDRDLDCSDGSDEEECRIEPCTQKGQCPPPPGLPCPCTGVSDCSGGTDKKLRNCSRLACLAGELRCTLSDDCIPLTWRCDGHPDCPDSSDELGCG
Procedure: Control wells contained no added ligand. As an additional control, to determine whether the absence of calcium affected binding, 10 mM EGTA was included in the incubation medium for some samples. […] Excess primary antibody was removed and wells washed before incubation with the secondary antibody, HRP-conjugated goat anti rabbit IgG (Bio-Rad). After washing, TMB substrate solutions (Bio-Rad) were added to detect HRP. Color development was stopped with 1N HCl. Absorption at 450 nm was measured with a microplate spectrophotometer (Molecular Devices). Data were plotted and Kd values derived by non-linear regression with the assumption of single-site binding (GraphPad Prism).

[7] = target: T9, 8D6 CR12 (CR pair from FDC-8D6 antigen, …); assay: solid-phase assay on the coated FDC-8D6 antigen CR pair, relative binding
MAT CR12 = target: T2, MAT CR12; assay: binding of truncated MatRAP1 forms to MAT CR12, relative signal under isomolar conditions
Procedure: as §2

Binder | binding result (LRP2 CR34-36) | binding result (LRP2 CR3031) | binding result (LRP2 CR2728) | binding result (LRP2 CR3536) | binding result (LRP2 CR89) | Kd [4] [nM] | Kd [5] [nM] | further results
MatRAP2 d3 (ligand, Selected by phage panning on MAT CR34; also called RAP vMB; not shown: N-terminal hexahistidine and S-peptide tags of pET30(+)a) LDRLRRVSHQGYSTEAEFEEPRVIDLWDLAQPANLTDKGLEAFREGLKHFLAKIEPHNHYQKQLETVREPLRYAESVGDGERVSRSHEKYALLEGRTRELGYTVKKHLQDLFGRISRAR | no binding (tested: 80 nM) | no binding (tested: 80 nM) | no binding (tested: 80 nM) | no binding (tested: 80 nM) | no binding (tested: 80 nM) | – | – | –
mRAPc (N-terminal biotin-GGSGG; intramolecular disulfide between C241 and C315 (mature RAP numbering), Synthetic; also called mRAPc peptide; monomeric peptide) peptide: CGFREELKHFEAKIEKHNHYQKQLEIAHEKLRHAESVGDGERVSRSREKHALLEGRTKELGYTVKKHLQDLSGGC | – | – | – | – | – | 5 | 10 | EC50 [1]: 32 nM; EC50 [2]: 7 nM; EC50 [3]: 17 nM
320RAP1 truncated variant (identical truncations as MatRAP1, amino acids 243-313) (ligand, also called truncated form of 320RAP1; not shown: N-terminal hexahistidine and S-peptide tags of pET30(+)a) FREELKHFEAKIESHNHYQKQLEIAHESMRHAESVGYGERMSRSREKHALLEGRTKELGYTVTMHLQDLSG | – | – | – | – | – | – | – | fold improvement in affinity against the full-length variant [6]: 3.5 fold
tag-free RAP d3 peptide (amino acids 201-319 of mature human RAP, C-terminal cysteine linked to biotin) (ligand, C-terminal cysteine linked to maleimide-PEO2-biotin, Bacterially expressed, from GeneScript; lacks HNEL; also called full-length RAP d3) LDRLRRVSHQGYSTEAEFEEPRVIDLWDLAQSANLTDKELEAFREELKHFEAKIEKHNHYQKQLEIAHEKLRHAESVGDGERVSRSREKHALLEGRTKELGYTVKKHLQDLSGRISRARC | – | – | – | – | – | 1 | 8 | –
320RAP1 (full-length d3 variant) (ligand, Selected by phage panning on the CR pair of FDC-8D6 antigen; not shown: N-terminal hexahistidine and S-peptide tags of pET30(+)a) LDRLRRVSHQGYSTEAEFEEPRVIDLWDLAQSANLTDKELEAFREELKHFEAKIESHNHYQKQLEIAHESMRHAESVGYGERMSRSREKHALLEGRTKELGYTVTMHLQDLSGRISRAR | – | – | – | – | – | – | – | EC50 (read off the curve) [7]: ~7 nM
MatRAP1 d3 (ligand, Selected by phage panning on MAT CR23; also called RAP vMA; not shown: N-terminal hexahistidine and S-peptide tags of pET30(+)a) LDRLRRVSHQGYSTEAEFEEPRVIDLWDLAQSANLTDKELEAFREELKHFGAKIERHNHYQKQLEIAHEWLRHAESVGDGERVSRSREKHALLEGRTKELGYTVKKHLQDLSGRISRAR | no binding (tested: 80 nM) | no binding (tested: 80 nM) | no binding (tested: 80 nM) | no binding (tested: 80 nM) | no binding (tested: 80 nM) | – | – | fnctn (relative binding signal under isomolar conditions) (MAT CR12): 0.22
